The record followed here is patent publication US20230203185A1 (ECO ANIMAL HEALTH, published 2023).

Numbering of substitutions follows the chain as printed.

T1: porcine CD163 with deletion of SRCR domain 5 on porcine alveolar macrophages (porcine, UniProt Q2VL90 47-1115)
T1 construct: also called PAM CD163-d5; pPAMΔ5 domain
T1 sequence: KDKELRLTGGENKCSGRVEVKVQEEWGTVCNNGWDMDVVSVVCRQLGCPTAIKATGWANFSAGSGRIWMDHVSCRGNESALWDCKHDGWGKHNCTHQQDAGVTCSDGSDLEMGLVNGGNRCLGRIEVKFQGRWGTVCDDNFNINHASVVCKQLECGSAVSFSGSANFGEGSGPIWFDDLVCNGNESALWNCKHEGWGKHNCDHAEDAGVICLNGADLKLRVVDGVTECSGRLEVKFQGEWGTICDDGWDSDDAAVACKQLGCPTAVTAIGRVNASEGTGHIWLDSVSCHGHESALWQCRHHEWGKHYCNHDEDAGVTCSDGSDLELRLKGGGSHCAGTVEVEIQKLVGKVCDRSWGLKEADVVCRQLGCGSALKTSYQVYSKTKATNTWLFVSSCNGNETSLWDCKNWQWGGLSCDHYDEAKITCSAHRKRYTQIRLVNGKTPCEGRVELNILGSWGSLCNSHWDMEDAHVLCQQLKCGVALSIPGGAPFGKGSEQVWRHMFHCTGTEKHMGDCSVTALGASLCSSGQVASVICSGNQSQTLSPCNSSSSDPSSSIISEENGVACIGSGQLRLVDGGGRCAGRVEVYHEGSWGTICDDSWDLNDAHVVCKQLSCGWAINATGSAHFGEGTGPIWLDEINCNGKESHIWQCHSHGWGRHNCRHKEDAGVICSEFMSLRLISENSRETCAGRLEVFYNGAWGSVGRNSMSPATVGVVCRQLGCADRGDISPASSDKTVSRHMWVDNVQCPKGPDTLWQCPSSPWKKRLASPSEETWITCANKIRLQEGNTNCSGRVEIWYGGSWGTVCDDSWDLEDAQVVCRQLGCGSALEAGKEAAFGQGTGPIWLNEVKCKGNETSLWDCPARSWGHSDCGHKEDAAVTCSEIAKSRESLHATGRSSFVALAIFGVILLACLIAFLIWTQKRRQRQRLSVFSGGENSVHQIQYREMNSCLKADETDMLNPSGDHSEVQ

T2: native membrane bound porcine CD163 on primary porcine alveolar macrophages (porcine, UniProt Q2VL90 47-1115)
T2 construct: also called PAM CD163-WT; pPAM
T2 sequence: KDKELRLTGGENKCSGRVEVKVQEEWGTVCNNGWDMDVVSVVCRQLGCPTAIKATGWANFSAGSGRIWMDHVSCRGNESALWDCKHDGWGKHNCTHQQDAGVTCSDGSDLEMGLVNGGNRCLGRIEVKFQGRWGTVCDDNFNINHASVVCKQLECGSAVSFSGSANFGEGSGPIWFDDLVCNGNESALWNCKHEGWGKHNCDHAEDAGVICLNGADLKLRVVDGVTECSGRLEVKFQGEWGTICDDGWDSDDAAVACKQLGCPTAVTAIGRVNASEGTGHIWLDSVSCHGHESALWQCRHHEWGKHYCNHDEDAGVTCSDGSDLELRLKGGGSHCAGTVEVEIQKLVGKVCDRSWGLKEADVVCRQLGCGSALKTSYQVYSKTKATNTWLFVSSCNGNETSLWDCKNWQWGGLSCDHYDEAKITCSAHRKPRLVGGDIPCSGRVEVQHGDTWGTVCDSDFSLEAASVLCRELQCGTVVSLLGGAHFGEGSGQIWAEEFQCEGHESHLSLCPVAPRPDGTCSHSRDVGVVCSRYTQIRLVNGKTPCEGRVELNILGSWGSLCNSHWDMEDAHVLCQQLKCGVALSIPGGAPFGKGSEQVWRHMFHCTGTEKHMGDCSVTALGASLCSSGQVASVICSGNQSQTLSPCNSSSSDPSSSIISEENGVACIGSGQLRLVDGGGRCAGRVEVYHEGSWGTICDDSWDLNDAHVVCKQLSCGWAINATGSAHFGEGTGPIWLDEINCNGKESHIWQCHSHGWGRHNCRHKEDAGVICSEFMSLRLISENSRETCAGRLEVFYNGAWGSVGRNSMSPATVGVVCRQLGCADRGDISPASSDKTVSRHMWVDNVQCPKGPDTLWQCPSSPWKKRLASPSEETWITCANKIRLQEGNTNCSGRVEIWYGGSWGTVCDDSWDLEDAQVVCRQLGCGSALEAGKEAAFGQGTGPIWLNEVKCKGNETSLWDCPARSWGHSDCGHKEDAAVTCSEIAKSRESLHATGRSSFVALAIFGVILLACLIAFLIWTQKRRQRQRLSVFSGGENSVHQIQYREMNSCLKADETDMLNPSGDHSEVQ

B1: VHH 023 (4E10) (VHH)
VHH: QVQLVESGGGLVQAGGSLRLSCVASSRTSSTYAMGWFRQGPGKERDFVAIISFGGTFYADSVKGRFTISRDNAKNTVYLQMNSLKPEDTAVYYCAAGRTLSKRADSYASWGQGTQVTVSS
notes: Llama single domain antibody; also called 70(#23); VHCDR3 70(#23); not shown: tags: c-myc tag in periplasmic extract (ELISA, FACS); FLAG and His tags in purified VHH (SPR, infection assays)
B2: VHH 011 (2B06) (VHH)
VHH: EVQLVESGGGLVQAGGSLRLSCAASGRTLSVYGTGWFRQAPGKEREFVAGISGTTGSTLYADSVKGRFTISRDNAKNTVYLQMNSLKSEDTALYYCAAGGRVYITTSSWAYWGQGTQVTVSS
notes: Llama single domain antibody; also called 57(#11); VHCDR3 57(#11); not shown: tags: c-myc tag in periplasmic extract (ELISA, FACS); FLAG and His tags in purified VHH (SPR, infection assays)
B3: VHH 018 (3E01) (VHH)
VHH: QVQLQESGGGLVQVGGSLRLSCVASGRAPSRYVMGWFRQAPGQEREFVAGIAWSGRAPYADSVKGRSTISRDNAKNTVYLQMNSLKPEDTGVYYCAGGEGAIRWTTLDAYDYWGQGTQVTVSS
notes: Llama single domain antibody; also called 49(#18); VHCDR3 49(#18); not shown: tags: c-myc tag in periplasmic extract (ELISA, FACS); FLAG and His tags in purified VHH (SPR, infection assays)
B4: VHH 019 (3E11) (VHH)
VHH: B3 VHH with G16S, A24T, A28T, G50A, A52S, S67F, R103K
notes: Llama single domain antibody; also called 47(#19); VHCDR3 47(#19); not shown: tags: c-myc tag in periplasmic extract (ELISA, FACS); FLAG and His tags in purified VHH (SPR, infection assays)
B5: VHH 020 (3H11) (VHH)
VHH: B3 VHH with A28T, S67F, T68V, N73S, P87S, R103L, L107P, D108G, D111N
notes: Llama single domain antibody; also called 48(#20); VHCDR3 48(#20); not shown: tags: c-myc tag in periplasmic extract (ELISA, FACS); FLAG and His tags in purified VHH (SPR, infection assays)
B6: VHH 017 (3D03) (VHH)
VHH: QLQLVESGGGLVQPGGSLRLSCAASGFTLDDYTIGWFRQAPGKEREGVSCINSITSNTYYADSVKGRFTISRDNAKNTVYLQMNSLTAEDTAIYYCAADSGLFSGSSCLKYRAMRFGSWGQGTQVTVSS
notes: Llama single domain antibody; also called 29(#17); VHCDR3 29(#17); not shown: tags: c-myc tag in periplasmic extract (ELISA, FACS); FLAG and His tags in purified VHH (SPR, infection assays)
B7: VHH 001 (1B02) (VHH)
VHH: EVQLVESGGGLVQAGGSLSLSCAASGGTLAMYAMSWFRQAPGKDRKFVAAINTSGRYSRYADSVKGRFTISRDNAKNTATLQMNSLEPEDTAVYYCAATDKGNWALAMSYDYWGQGTQVTVSS
notes: Llama single domain antibody; also called 144(#1); VHCDR3 144(#1); not shown: tags: c-myc tag in periplasmic extract (ELISA, FACS); FLAG and His tags in purified VHH (SPR, infection assays)
B8: VHH 012 (2C07) (VHH)
VHH: QLQLVESGGGLVQAGGSLRLSCVASGRTFSRYAMGWFRQAPGKEREFVAAIAWSTGSTYYANSVKGRFAISGDNAKNTVYLQMNSLKPEDTAVYYCAAETRYCSGFGCLDPRTYGSWGQGTQVTVSS
notes: Llama single domain antibody; also called 41(#12); VHCDR3 41(#12); not shown: tags: c-myc tag in periplasmic extract (ELISA, FACS); FLAG and His tags in purified VHH (SPR, infection assays)
B9: VHH 002 (1B04) (VHH)
VHH: QVQLVESGGGLVQAGGSLRLSCAASGLTFVTYSMGWFRQAPGKEREFVAAHRWSGSAYYAEHADSVEGRFTISRDYAKNMLYLQMNSLKHEDTAVYYCAAGVGSAAQYRYWGRGTQVTVSS
notes: Llama single domain antibody; also called 76(#2); VHCDR3 76(#2); not shown: tags: c-myc tag in periplasmic extract (ELISA, FACS); FLAG and His tags in purified VHH (SPR, infection assays)
B10: VHH 008 (1H01) (VHH)
VHH: B9 VHH with L27R, V30G, A105E
notes: Llama single domain antibody; also called 78(#8); VHCDR3 78(#8); not shown: tags: c-myc tag in periplasmic extract (ELISA, FACS); FLAG and His tags in purified VHH (SPR, infection assays)
B11: VHH 016 (2H11) (VHH)
VHH: EVQLVESGGGLVQAGGSLRLSCAASGRTFAPGSMGWFRQAPGKEREFVAAHRWSGSAYYADYADSVEGRFTISRDYAKNMVYLQMNSLKPGDTAVYYCAAGVGSAAQYTYWGRGTQVTVSS
notes: Llama single domain antibody; also called 77(#16); VHCDR3 77(#16); not shown: tags: c-myc tag in periplasmic extract (ELISA, FACS); FLAG and His tags in purified VHH (SPR, infection assays)
B12: VHH 015 (2G01) (VHH)
VHH: QVQLVESGGGLVQAGDTLRLSCTASGRTFSSYSMGWFRQAPGKEREFVAAITWNGYITNYADSVKGRFTISRDNTKNTVFLQMNSLKPEETAVYYCAATTFSTTSPISRTYNYWGPGTQVTVSS
notes: Llama single domain antibody; also called 150(#15); VHCDR3 150(#15); not shown: tags: c-myc tag in periplasmic extract (ELISA, FACS); FLAG and His tags in purified VHH (SPR, infection assays)

One assay concerns the target T1, porcine CD163 with deletion of SRCR …. Nature of the assay: flow cytometry, PAM CD163-d5. The method, then:
(§1) Periplasmic Extract (P.E) from the selected clones were incubated with anti-c-myc antibody (Roche; Cat. nr. 11667203001), specific to the c-myc tag present in the soluble VHH, for 30 minutes with agitation at room temperature (RT). The mix (P.E + anti-c-myc antibody) was added to the pPAM or pPAMΔ5 domain (cells with deletion of SRCR domain 5) and incubated for 60 min at 4° C. with gentle shaking.
(§2) Cells were washed 3x with 150 µl/well of FACS Buffer and incubated with 50 µl/well of the secondary antibody GAM-APC for 30 min at 4° C. and protected from the light, with shaking.
In the case of B1, the “% Binding” value came to 1.53% and the MFI amounted to 1260 MFI.

In the case of B2, the “% Binding” value was determined as 1.91% and the MFI amounted to 1610 MFI.

As to B3, the “% Binding” value was 1.96% and the MFI turned out to be 1400 MFI.

With B4, the “% Binding” value was found to be 1.83% and the MFI came to 1530 MFI.

On to B5, for which the “% Binding” value is 1.98% and the MFI is 1330 MFI.

Take B6: the “% Binding” value is 2.14% and the MFI is 1450 MFI.

On to B7, for which the “% Binding” value turned out to be 2.15% and the MFI was 1430 MFI.

As for B8, the “% Binding” value is 2.13% and the MFI amounted to 1580 MFI.

For B9, the “% Binding” value is 1.74% and the MFI is 1260 MFI.

For the molecule B10, the “% Binding” value is 2.7% and the MFI turned out to be 1460 MFI.

B11: the “% Binding” value is 1.66% and the MFI is 1360 MFI.

With B12, the “% Binding” value was 1.6% and the MFI was found to be 1130 MFI.

For a further assay, the target named is control human IgG (human). Description: ELISA, periplasmic extract on control IgG. In general terms: In an ELISA, binding on a coated surface is turned into a signal by an enzyme label.
Regarding B1, the O.D. 450 stood at 0.054 O.D. 450.

The molecule B2 came in with an O.D. 450 of 0.059 O.D. 450.

In turn, B3 registered an O.D. 450 of 0.057 O.D. 450.

B4 displayed an O.D. 450 of 0.054 O.D. 450.

As to B5, the O.D. 450 stood at 0.056 O.D. 450.

Regarding B6, the O.D. 450 worked out at 0.053 O.D. 450.

B7: the O.D. 450 amounted to 0.059 O.D. 450.

In the case of B8, the O.D. 450 was determined as 0.057 O.D. 450.

Regarding B9, the O.D. 450 was found to be 0.057 O.D. 450.

B10 yielded an O.D. 450 of 0.06 O.D. 450.

For B11, the O.D. 450 was determined as 0.06 O.D. 450.

On to B12, for which the O.D. 450 amounted to 0.058 O.D. 450.

A further assay concerns the target T2, native membrane bound porcine CD163 on …. Description: flow cytometry, PAM CD163-WT, 4C. The method, then:
as §1, §2
In general terms: In flow cytometry, cells or beads pass a laser one at a time.
Turning to B1, the “% Binding” value came out at 8.75% and the MFI was 1390 MFI.

Take B2: the “% Binding” value amounted to 74.1% and the MFI came out at 4270 MFI.

On to B3, for which the “% Binding” value was 80.1% and the MFI was determined as 5210 MFI.

B4: the “% Binding” value was found to be 93.8% and the MFI worked out at 12500 MFI.

For B5, the “% Binding” value stood at 95.5% and the MFI is 14000 MFI.

For B6, the “% Binding” value is 95.3% and the MFI was determined as 13500 MFI.

With B7, the “% Binding” value came out at 0.97% and the MFI is 742 MFI.

In the case of B8, the “% Binding” value was found to be 97.9% and the MFI stood at 26500 MFI.

Regarding B9, the “% Binding” value worked out at 31.8% and the MFI worked out at 1980 MFI.

For the molecule B10, the “% Binding” value stood at 38.8% and the MFI is 2370 MFI.

B11: the “% Binding” value was 61% and the MFI is 3210 MFI.

With B12, the “% Binding” value was 81.5% and the MFI is 6220 MFI.
